Changes are numbered by the printed parent chain.
Experiments:
Experiment in all cases: SPR
[1] = target: FcγRIIIa-F158, human, C-terminally biotinylated (human, UniProt P08637 17-208, biotin, C-terminal)
[2] = target: T1, FcγRIIa-H131, human, C-terminally biotinylated (human, UniProt P12318 34-217, biotin, C-terminal)
T1 chain: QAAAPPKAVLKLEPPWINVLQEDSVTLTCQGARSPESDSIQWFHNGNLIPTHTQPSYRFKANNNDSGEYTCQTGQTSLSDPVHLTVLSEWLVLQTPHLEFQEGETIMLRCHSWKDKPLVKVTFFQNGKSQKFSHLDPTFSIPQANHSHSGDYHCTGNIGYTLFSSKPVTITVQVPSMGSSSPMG

[3] = target: T2, FcγRIIa-R131, human, C-terminally biotinylated (human, biotin, C-terminal)
T2 chain: T1 chain with H134R

[4] = target: T3, FcγRIa, human, C-terminally biotinylated (human, UniProt P12314 16-292, biotin, C-terminal)
T3 chain: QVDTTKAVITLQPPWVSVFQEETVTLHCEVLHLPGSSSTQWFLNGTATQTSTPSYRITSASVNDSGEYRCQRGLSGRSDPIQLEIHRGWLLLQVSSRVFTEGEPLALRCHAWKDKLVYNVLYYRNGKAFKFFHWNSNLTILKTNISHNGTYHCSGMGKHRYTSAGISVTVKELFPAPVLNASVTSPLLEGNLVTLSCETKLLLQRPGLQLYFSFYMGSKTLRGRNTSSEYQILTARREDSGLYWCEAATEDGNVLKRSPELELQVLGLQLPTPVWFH

[5] = target: FcγRIIIa-V158, human, C-terminally biotinylated (human, UniProt P08637 17-208, p.176Val (V158), biotin, C-terminal)
Sequence of FcγRIIIa-V158, human, C-terminally biotinylated (P08637 other isoform, or with tags, fused parts or gaps p.176Val (V158)): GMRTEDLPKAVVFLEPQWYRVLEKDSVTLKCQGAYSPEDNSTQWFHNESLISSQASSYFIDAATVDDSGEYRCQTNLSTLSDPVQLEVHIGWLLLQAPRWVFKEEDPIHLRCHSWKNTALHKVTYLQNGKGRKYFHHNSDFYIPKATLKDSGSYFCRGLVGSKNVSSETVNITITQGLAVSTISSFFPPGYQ

Sequence of FcγRIIIa-F158, human, C-terminally biotinylated (P08637 17-208): as the sequence (P08637 other isoform, or with tags, fused parts or gaps p.176Val (V158)) above, with V160F counted along it

- Kd [1]: 4.9 µM
- Kd [2]: 4.5 µM
- Kd [3]: 4.6 µM
- Kd [4]: 3.4 µM
- Kd [5]: 4.4 µM
B1: C-reactive protein (native CRP from human fluid) (natural protein)
chain: QTDMSRKAFVFPKESDTSYVSLKAPLTKPLKAFTVCLHFYTELSSTRGYSIFSYATKRQDNEILIFWSKDIGYSFTVGGSEILFEVPEVTVAPVHICTSWESASGIVEFWVDGKPRVRKSLKKGYTVGAEASIILGQEQDSFGGNFEGSQSLVGDIGNVNMWDFVLSPDEINTIYLGGPFSPNVLNWRALKYEVQGEVFTKPQLWP
